The record followed here is patent US20180250358A1, “GHRH AGONISTS FOR THE TREATMENT OF ISCHEMIC DISORDERS” (published 2018).

For orientation: IC50 means the concentration that inhibits the measured activity by half. A higher IC50 goes with weaker potency.

The target of test [1] is GHRH receptor of human pituitary membranes (human) (UniProt Q02643). Put plainly: competition vs 125I-[His1,Nle27]hGHRH(1-32)NH2, human pituitary membranes.
The target of test [2] is T1, GHRH receptor of human pituitary membranes (human, UniProt Q02643).
T1 sequence: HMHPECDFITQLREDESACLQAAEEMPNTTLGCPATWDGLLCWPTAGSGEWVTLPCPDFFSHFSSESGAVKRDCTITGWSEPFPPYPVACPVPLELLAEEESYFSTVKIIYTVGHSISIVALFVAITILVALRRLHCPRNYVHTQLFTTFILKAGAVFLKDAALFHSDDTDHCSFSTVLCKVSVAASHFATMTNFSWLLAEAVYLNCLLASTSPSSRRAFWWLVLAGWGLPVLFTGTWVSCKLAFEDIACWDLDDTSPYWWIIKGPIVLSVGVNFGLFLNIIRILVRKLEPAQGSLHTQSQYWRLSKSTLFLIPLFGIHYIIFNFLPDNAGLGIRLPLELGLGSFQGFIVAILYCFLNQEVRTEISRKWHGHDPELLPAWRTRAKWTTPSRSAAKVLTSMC
Described as above.
Text: (§1) Normal human pituitaries were purchased from the National Hormone and Peptide Program (A.F. Parlow, Los Angeles, County Harbor-UCLA Medical Center, Torrance, Calif.).

Test [3] deals with T1, GHRH receptor of human pituitary …. Description: competition vs 125I-JV-1-42, human pituitary membranes. How it is done:
The final binding affinities were expressed as IC₅₀ values and were calculated by using the LIGAND PC computerized curve-fitting program of Munson and Rodbard as modified by McPherson.

Test [4] has the same target. Description: competition vs 125I-[His1,Nle27]hGHRH(1-32)NH2, human pituitary membranes. The source holds these as a separate data set.
Text: Normal human pituitary was purchased from the National Hormone and Peptide Program (UCLA Medical Center, Torrance, Calif.).
For test [5] the target is unchanged. Put plainly: competition vs 125I-JV-1-42, human pituitary membranes. The source holds these as a separate data set.
Text: as §1
For test [6] the target is unchanged. Put plainly: competition vs 125I-[His1,Nle27]hGHRH(1-32)NH2, human pituitary membranes. The source holds these as a separate data set.
The target of test [7] is T2, GHRH receptor of rat pituitary cells (rat, UniProt Q02644).
T2 sequence: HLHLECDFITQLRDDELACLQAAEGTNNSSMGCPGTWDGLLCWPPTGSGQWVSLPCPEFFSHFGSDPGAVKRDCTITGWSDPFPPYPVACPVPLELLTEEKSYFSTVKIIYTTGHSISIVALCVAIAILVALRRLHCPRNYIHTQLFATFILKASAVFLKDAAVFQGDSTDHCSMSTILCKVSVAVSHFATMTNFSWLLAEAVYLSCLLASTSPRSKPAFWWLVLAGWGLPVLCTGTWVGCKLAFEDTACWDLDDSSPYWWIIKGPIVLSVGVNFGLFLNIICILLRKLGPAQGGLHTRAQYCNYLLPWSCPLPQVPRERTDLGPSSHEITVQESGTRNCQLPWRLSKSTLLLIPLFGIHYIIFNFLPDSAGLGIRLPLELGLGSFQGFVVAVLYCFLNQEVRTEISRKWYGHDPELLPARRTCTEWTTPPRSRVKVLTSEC
Put plainly: cell-based or functional assay.

Non-standard residues stand in square brackets, D forms with d. No end group written: not given here. *: point of attachment. Desaminotyrosyl = O=C(CCc1ccc(O)cc1)*; NMeY = CN[C@@H](Cc1ccc(O)cc1)C(=O)O; Agmatine = N=C(N)NCCCCN*; Nle = CCCC[C@H](N)C(=O)O; Orn = NCCC[C@H](N)C(=O)O; Abu = CC[C@H](N)C(=O)O; Aoc = NCCCCCCCC(=O)O

Take JI-36 (peptide): the relative affinity (binding potency) vs GHRH (vs GHRH(1-29)=1) in test [1] was 3.25.

Take JI-34 (peptide): in test [1], the relative affinity (binding potency) vs GHRH (vs GHRH(1-29)=1) is 4.32.

B1: P-21304 [Dat^1, D-Ala^2, Gln^8, Orn^12, Abu^15, Orn^21, Nle^27, Asp^28, Amc^30]hGHRH(1-30)NH2 (peptide)
peptide: [Desaminotyrosyl][dA]DAIFTQSYR[Orn]VL[Abu]QLSAR[Orn]LLQDI[Nle]DR[Aoc]-NH2
SMILES: CCCC[C@H](NC(=O)[C@@H](NC(=O)[C@H](CC(=O)O)NC(=O)[C@H](CCC(N)=O)NC(=O)[C@H](CC(C)C)NC(=O)[C@H](CC(C)C)NC(=O)[C@H](CCCN)NC(=O)[C@H](CCCNC(=N)N)NC(=O)[C@H](C)NC(=O)[C@H](CO)NC(=O)[C@H](CC(C)C)NC(=O)[C@H](CCC(N)=O)NC(=O)[C@H](CC)NC(=O)[C@H](CC(C)C)NC(=O)[C@@H](NC(=O)[C@H](CCCN)NC(=O)[C@H](CCCNC(=N)N)NC(=O)[C@H](Cc1ccc(O)cc1)NC(=O)[C@H](CO)NC(=O)[C@H](CCC(N)=O)NC(=O)[C@@H](NC(=O)[C@H](Cc1ccccc1)NC(=O)[C@@H](NC(=O)[C@H](C)NC(=O)[C@H](CC(=O)O)NC(=O)[C@@H](C)NC(=O)CCc1ccc(O)cc1)[C@@H](C)CC)[C@@H](C)O)C(C)C)[C@@H](C)CC)C(=O)N[C@@H](CC(=O)O)C(=O)N[C@@H](CCCNC(=N)N)C(=O)NCCCCCCCC(N)=O
B1: in test [2], the IC50 came to 0.08 nM, the “relative affinity (binding potency) vs GHRH” value was 74 vs GHRH(1-29)=1 and the “relative affinity (binding potency) vs JI-38” value (shortened to “relative affinity … vs JI-38”) came to 24.4 vs JI-38=1.

Turning to YADAIFTNSYRKVLGQLSARKLLQDIMSR-NH2 (ligand) [hGHRH(1-29)NH2], the half-maximal inhibitory concentration (IC50) in test [2] came to 5.92 nM; in test [3], 4.06 nM.

B2: JI-38 [Dat^1, Gln^8, Orn^12,21, Abu^15, Nle^27, Asp^28, Agm^29]hGHRH(1-29)NH2 (peptide)
peptide: [Desaminotyrosyl]ADAIFTQSYR[Orn]VL[Abu]QLSAR[Orn]LLQDI[Nle]D[Agmatine]
SMILES: CCCC[C@H](NC(=O)[C@@H](NC(=O)[C@H](CC(=O)O)NC(=O)[C@H](CCC(N)=O)NC(=O)[C@H](CC(C)C)NC(=O)[C@H](CC(C)C)NC(=O)[C@H](CCCN)NC(=O)[C@H](CCCNC(=N)N)NC(=O)[C@H](C)NC(=O)[C@H](CO)NC(=O)[C@H](CC(C)C)NC(=O)[C@H](CCC(N)=O)NC(=O)[C@H](CC)NC(=O)[C@H](CC(C)C)NC(=O)[C@@H](NC(=O)[C@H](CCCN)NC(=O)[C@H](CCCNC(=N)N)NC(=O)[C@H](Cc1ccc(O)cc1)NC(=O)[C@H](CO)NC(=O)[C@H](CCC(N)=O)NC(=O)[C@@H](NC(=O)[C@H](Cc1ccccc1)NC(=O)[C@@H](NC(=O)[C@H](C)NC(=O)[C@H](CC(=O)O)NC(=O)[C@H](C)NC(=O)CCc1ccc(O)cc1)[C@@H](C)CC)[C@@H](C)O)C(C)C)[C@@H](C)CC)C(=O)N[C@@H](CC(=O)O)C(=O)NCCCCNC(=N)N
Regarding B2, in test [2], the IC50 was 1.95 nM, the “relative affinity (binding potency) vs GHRH” value is 3.03 vs GHRH(1-29)=1 and the “relative affinity … vs JI-38” value turned out to be 1 vs JI-38=1. Moreover, in test [4], the concentration for half-maximal inhibition (IC50) was 2.74 nM, the “relative affinity (binding potency) compared to JI-38” value (from here on “relative affinity … to JI-38”) is 1 vs JI-38=1 and the “relative affinity (binding potency) compared to hGHRH(1-29)” value (shortened to “relative affinity … to hGHRH(1-29)”) was 2.79 vs hGHRH(1-29)NH2=1. Also, in test [5], the IC50 stood at 4.35 nM and the “relative affinity … vs JI-38” value came to 1 vs JI-38=1. Also, in test [3], the IC50 is 1.71 nM, the “relative affinity (binding potency) vs GHRH” value is 2.4 vs GHRH(1-29)=1 and the “relative affinity … vs JI-38” value worked out at 1 vs JI-38=1.

Consider [NMeY][dA]DAIFTQSYR[Orn]VL[Abu]QLSAR[Orn]LLQDI[Nle]DR-NHMe [P-27403 [N-Me-Tyr^1, D-Ala^2, Gln^8, Orn^12, Abu^15, Orn^21, Nle^27, Asp^28]hGHRH(1-29)NH-CH3], for which, in test [4], the half-inhibitory concentration (IC50) turned out to be 0.74 nM, the “relative affinity … to JI-38” value was determined as 3.69 vs JI-38=1 and the “relative affinity … to hGHRH(1-29)” value is 10.3 vs hGHRH(1-29)NH2=1. For the same molecule, in test [5], the IC50 came out at 0.16 nM and the “relative affinity … vs JI-38” value was found to be 27.2 vs JI-38=1. Moreover, the “fold enhancement of receptor binding affinity vs JI-38” value in test [6] is about 3.7 fold vs JI-38.

Consider [NMeY]ADAIFTQSYR[Orn]VL[Abu]QLSAR[Orn]LLQDI[Nle]D[Agmatine] [P-20356 [N-Me-Tyr^1, Gln^8, Orn^12, Abu^15, Orn^21, Nle^27, Asp^28, Agm^29]hGHRH(1-29)NH2], for which, in test [4], the “relative affinity … to JI-38” value was found to be 2.69 vs JI-38=1 and the “relative affinity … to hGHRH(1-29)” value was 7.5 vs hGHRH(1-29)NH2=1. For the same molecule, in test [5], the IC50 amounted to 0.27 nM and the “relative affinity … vs JI-38” value came to 16.1 vs JI-38=1. Further, in test [6], the “fold increase in GHRH receptor binding affinity vs JI-38” value amounted to 2.7 fold vs JI-38. Further, in test [3], the IC50 is 0.01 nM, the “relative affinity (binding potency) vs GHRH” value was 406 vs GHRH(1-29)=1 and the “relative affinity … vs JI-38” value stood at 171 vs JI-38=1. The “GH-releasing potency in vitro relative to JI-38, superfused rat pituitary cells” value in test [7] was about 3 fold vs JI-38.
